This is an account of results in US20240101674A1 (OTTIMO PHARMA, published 2024).

The target in test [1] is T1, human PD1 human Fc tagged recombinant protein (human, UniProt Q15116 25-170).
T1 construct: also called human PD1-Fc; hu PD1; not shown: human Fc tag
As to the kind of experiment: periprep Fab direct binding ELISA (FIG. 1).

Test [2] concerns the target T2, cynomolgus monkey PD1 human Fc tagged recombinant protein (cynomolgus monkey, UniProt Q15116 25-170 (human entry), limits assumed).
T2 construct: also called cyno PD1-Fc; cyno PD1; not shown: human Fc tag
T2 chain: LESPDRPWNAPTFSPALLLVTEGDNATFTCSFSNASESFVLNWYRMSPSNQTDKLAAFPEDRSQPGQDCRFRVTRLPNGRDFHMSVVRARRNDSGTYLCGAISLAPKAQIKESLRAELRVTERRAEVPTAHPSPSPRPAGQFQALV
Kind of test: periprep Fab direct binding ELISA (FIG. 1).

T1 sequence (Q15116 25-170 limits assumed): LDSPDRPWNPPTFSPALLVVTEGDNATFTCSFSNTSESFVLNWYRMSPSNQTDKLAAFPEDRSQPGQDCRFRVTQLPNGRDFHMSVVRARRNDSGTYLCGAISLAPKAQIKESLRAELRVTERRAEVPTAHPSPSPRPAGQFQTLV

B1: hMAb005 Fab (Fab, V domains shown)
VH: EVQLVESGGGLVQPGGSLRLSCAASGFTFSSYMMSWVRQAPGKGLEWVATISGGGANTYYPDSVKGRFTISRDNAKNSLYLQMNSLRAEDTAVYYCARQLYYFDYWGQGTTVTVSS
VL: DIQMTQSPSSLSASVGDRVTITCLASQTIGTWLTWYQQKPGKAPKLLIYTATSLADGVPSRFSGSGSGTDFTLTISSLQPEDFATYYCQQVYSIPWTFGGGTKVEIK
notes: Human IgG1-kappa Fab, periplasmically expressed in E. coli, detected via c-myc; also called hMAb005 v-domains expressed as human IgG1 Fab; positive control hMAb005 Fab
B1: the binding result in test [1] and in test [2] was “binds” each time.
